Laboratory results as given in paper PMC2727048.

T1: HBV core protein of virion-derived mature capsids (Mat-C) (Hepatitis B virus), P03146
T1 chain: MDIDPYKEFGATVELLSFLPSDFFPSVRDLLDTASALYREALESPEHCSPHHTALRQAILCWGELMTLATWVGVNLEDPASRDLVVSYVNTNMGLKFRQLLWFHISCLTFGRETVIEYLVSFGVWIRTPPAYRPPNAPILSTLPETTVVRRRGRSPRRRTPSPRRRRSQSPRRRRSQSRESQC

T2: HBV core protein of E. coli-derived "recombinant" capsids (rC) (Hepatitis B virus), P03146
T2 chain: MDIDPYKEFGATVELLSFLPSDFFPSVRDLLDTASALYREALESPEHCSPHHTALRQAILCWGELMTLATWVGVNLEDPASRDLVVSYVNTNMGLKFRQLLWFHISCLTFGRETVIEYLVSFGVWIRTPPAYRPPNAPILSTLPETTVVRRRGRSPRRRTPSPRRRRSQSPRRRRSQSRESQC


Legend:
Conditions in all cases: remark: other sources report otherwise
[1] = biological target: T1, HBV core protein of virion-derived …; assay: Nycodenz gradient ultracentrifugation; 50 ng P-Mat-C after transport reaction with 4×10^6 digitonin-permeabilized HuH-7 cells and rabbit reticulocyte lysate, lysate of the cells on the gradient; controls with WGA, cells treated with RNase A
[2] = biological target: T1, HBV core protein of virion-derived …; assay: Nycodenz gradient ultracentrifugation
[3] = biological target: T2, HBV core protein of E. coli-derived …; assay: Nycodenz gradient ultracentrifugation

Row | Binder | percent of 32P core proteins in the particle fractions [1] [%] | percent of the radioactivity in the four major (capsid) fractions [2] [%] | percent of the radioactivity in the three major (capsid) fractions [3] [%]
1 | HBV core protein of virion-derived mature capsids (Mat-C), P03146 1-183 (natural protein) MDIDPYKEFGATVELLSFLPSDFFPSVRDLLDTASALYREALESPEHCSPHHTALRQAILCWGELMTLATWVGVNLEDPASRDLVVSYVNTNMGLKFRQLLWFHISCLTFGRETVIEYLVSFGVWIRTPPAYRPPNAPILSTLPETTVVRRRGRSPRRRTPSPRRRRSQSPRRRRSQSRESQC | 99 | 98 | –
2 | HBV core protein of E. coli-derived "recombinant" capsids (rC), P03146 1-183 (natural protein) MDIDPYKEFGATVELLSFLPSDFFPSVRDLLDTASALYREALESPEHCSPHHTALRQAILCWGELMTLATWVGVNLEDPASRDLVVSYVNTNMGLKFRQLLWFHISCLTFGRETVIEYLVSFGVWIRTPPAYRPPNAPILSTLPETTVVRRRGRSPRRRTPSPRRRRSQSPRRRRSQSRESQC | – | – | 91
